Results from paper PMC9482650, “Quantitative fragmentomics allow affinity mapping of interactomes” (Nature Communications, 2022).
Each block holds one binder with its values, some of them ahead of it.

Legend:
Test in all cases: holdup assay
Parameters in all cases: key: below the threshold = too weak to quantify, mostly under pKd 3.1 to 4
Conditions in all cases: plain residues with an end cap or a label only (N-terminal biotin on a linker: ado-ado)
NHERF3_1, Q5T2W1 = target: T1, NHERF3_1, Q5T2W1
T1 sequence (Q5T2W1 4-100, limits assumed, looked up): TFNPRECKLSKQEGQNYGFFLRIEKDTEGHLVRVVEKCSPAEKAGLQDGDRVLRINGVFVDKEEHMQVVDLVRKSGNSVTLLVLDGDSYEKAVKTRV

MPDZ_5, O75970 = target: T2, MPDZ_5, O75970
T2 sequence (O75970 695-796, limits assumed, looked up): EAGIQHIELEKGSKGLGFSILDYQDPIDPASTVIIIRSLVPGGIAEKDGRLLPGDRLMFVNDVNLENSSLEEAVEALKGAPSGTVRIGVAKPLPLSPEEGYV

IL16_1, Q14005 = target: IL16_1, Q14005
SCRIB_2, Q14160 = target: SCRIB_2, Q14160
DLG4_1, P78352 = target: DLG4_1, P78352
MAGI2_3, Q86UL8 = target: MAGI2_3, Q86UL8
MAGI1_1, Q96QZ7 = target: MAGI1_1, Q96QZ7
NHERF4_4, Q86UT5 = target: NHERF4_4, Q86UT5
APBA1_1, Q02410 = target: T3, APBA1_1, Q02410
T3 sequence (Q02410 651-752, limits assumed, looked up): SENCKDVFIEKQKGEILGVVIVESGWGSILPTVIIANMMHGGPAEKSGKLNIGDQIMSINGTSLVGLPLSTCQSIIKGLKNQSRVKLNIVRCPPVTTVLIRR

PDZD2_2, O15018 = target: T4, PDZD2_2, O15018
T4 sequence (O15018 329-429, limits assumed, looked up): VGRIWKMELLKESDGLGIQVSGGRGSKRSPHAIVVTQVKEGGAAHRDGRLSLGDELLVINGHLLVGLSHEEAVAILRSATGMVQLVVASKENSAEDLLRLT

GRIP2_5, Q9C0E4 = target: GRIP2_5, Q9C0E4
NHERF4_2, Q86UT5 = target: NHERF4_2, Q86UT5
PICK1, Q9NRD5 = target: PICK1, Q9NRD5
ARHGAP21, Q5T5U3 = target: T5, ARHGAP21, Q5T5U3
T5 sequence (Q5T5U3 45-169, limits assumed, looked up): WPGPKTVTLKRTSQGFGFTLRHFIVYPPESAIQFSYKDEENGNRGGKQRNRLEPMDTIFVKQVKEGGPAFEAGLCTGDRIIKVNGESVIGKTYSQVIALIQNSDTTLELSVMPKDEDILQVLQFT

PARD3_3, Q8TEW0 = target: PARD3_3, Q8TEW0
TX1BP3, O14907 = target: T6, TX1BP3, O14907
T6 sequence (O14907 10-122, limits assumed, looked up): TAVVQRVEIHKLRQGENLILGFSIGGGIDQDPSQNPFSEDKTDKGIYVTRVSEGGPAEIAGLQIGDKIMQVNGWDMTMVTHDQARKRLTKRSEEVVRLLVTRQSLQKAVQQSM

APBA1_2, Q02410 = target: T7, APBA1_2, Q02410
T7 sequence (Q02410 742-832, limits assumed, looked up): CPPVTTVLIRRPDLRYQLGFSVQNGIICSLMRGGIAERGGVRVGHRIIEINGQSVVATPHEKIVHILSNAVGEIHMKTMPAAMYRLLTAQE

NHERF2_2, Q15599 = target: NHERF2_2, Q15599
GRID2IP_2, A4D2P6 = target: GRID2IP_2, A4D2P6
DLG3_3, Q92796 = target: T8, DLG3_3, Q92796
T8 sequence (Q92796 374-475, limits assumed, looked up): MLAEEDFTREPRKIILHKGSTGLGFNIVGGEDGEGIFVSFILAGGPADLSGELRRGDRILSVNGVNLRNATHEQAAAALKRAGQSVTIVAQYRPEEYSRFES

LDB3, O75112 = target: LDB3, O75112
GRIP2_3, Q9C0E4 = target: GRIP2_3, Q9C0E4
MAST2, Q6P0Q8 = target: MAST2, Q6P0Q8
MPP7, Q5T2T1 = target: T9, MPP7, Q5T2T1
T9 sequence (Q5T2T1 134-230, limits assumed, looked up): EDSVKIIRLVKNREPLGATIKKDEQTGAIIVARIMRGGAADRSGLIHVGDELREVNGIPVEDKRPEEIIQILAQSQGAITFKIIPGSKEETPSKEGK

NOS1, P29475 = target: NOS1, P29475
MPDZ_10, O75970 = target: T10, MPDZ_10, O75970
T10 sequence (O75970 1624-1722, limits assumed, looked up): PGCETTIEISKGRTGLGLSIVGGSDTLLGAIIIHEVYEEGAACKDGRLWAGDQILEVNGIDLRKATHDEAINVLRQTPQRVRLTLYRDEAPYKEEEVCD

Inadl_4, Q8NI35 = target: Inadl_4, Q8NI35
Chain of Inadl_4, Q8NI35 (Q8NI35 547-651): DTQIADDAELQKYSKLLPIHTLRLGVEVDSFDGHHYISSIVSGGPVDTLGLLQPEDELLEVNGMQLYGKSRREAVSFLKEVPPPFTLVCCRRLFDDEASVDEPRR

Chain of GRID2IP_2, A4D2P6 (A4D2P6 272-370): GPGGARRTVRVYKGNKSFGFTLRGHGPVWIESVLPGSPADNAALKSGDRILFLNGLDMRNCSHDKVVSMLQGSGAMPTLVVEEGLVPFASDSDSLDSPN
Chain of PICK1, Q9NRD5 (Q9NRD5 17-115): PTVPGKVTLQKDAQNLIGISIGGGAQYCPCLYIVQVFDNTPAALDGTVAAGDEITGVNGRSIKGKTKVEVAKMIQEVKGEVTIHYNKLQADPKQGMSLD
Chain of NHERF2_2, Q15599 (Q15599 142-238): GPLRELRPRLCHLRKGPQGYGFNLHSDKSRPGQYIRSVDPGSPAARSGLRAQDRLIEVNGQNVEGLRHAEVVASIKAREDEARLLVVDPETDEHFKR
Chain of LDB3, O75112 (O75112 1-94): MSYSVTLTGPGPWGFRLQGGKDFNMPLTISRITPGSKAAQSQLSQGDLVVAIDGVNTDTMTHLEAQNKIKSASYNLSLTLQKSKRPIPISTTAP
Chain of PARD3_3, Q8TEW0 (Q8TEW0 582-685): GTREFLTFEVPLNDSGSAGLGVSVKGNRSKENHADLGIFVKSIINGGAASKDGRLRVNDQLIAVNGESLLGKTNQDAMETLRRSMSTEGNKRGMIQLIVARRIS
Chain of SCRIB_2, Q14160 (Q14160 857-960): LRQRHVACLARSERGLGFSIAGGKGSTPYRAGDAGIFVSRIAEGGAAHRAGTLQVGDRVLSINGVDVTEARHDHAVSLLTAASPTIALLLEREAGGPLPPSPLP
Chain of GRIP2_3, Q9C0E4 (Q9C0E4 238-339): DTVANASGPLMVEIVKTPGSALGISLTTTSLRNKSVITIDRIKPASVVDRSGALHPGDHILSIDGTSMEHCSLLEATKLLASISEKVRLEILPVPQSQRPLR
Chain of MAGI2_3, Q86UL8 (Q86UL8 600-682): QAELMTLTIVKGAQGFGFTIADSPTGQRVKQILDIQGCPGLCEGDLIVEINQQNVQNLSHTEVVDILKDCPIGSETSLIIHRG
Chain of DLG4_1, P78352 (P78352 62-152): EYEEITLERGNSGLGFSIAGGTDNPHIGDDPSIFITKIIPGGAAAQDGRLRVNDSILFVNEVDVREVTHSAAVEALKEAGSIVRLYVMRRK
Chain of NOS1, P29475 (P29475 9-101): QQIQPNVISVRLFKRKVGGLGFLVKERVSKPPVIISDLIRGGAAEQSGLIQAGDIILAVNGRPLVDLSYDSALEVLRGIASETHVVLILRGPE
Chain of IL16_1, Q14005 (Q14005 210-306): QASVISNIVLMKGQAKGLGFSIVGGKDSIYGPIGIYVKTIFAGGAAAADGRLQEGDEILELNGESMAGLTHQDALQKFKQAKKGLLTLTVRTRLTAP
Chain of NHERF4_2, Q86UT5 (Q86UT5 220-308): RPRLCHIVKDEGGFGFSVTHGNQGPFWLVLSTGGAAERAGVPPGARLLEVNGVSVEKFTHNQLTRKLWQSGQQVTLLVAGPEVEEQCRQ
Chain of NHERF4_4, Q86UT5 (Q86UT5 464-550): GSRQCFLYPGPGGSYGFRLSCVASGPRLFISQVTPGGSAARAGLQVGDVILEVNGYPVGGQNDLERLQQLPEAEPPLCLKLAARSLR
Chain of MAST2, Q6P0Q8 (Q6P0Q8 1099-1202): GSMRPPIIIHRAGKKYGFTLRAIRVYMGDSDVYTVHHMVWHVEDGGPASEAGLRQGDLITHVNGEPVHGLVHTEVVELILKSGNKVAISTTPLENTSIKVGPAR
Chain of MAGI1_1, Q96QZ7 (Q96QZ7 1-106): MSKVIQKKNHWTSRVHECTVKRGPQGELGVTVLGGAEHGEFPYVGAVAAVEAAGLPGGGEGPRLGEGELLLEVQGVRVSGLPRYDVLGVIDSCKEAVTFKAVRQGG
Chain of GRIP2_5, Q9C0E4 (Q9C0E4 544-642): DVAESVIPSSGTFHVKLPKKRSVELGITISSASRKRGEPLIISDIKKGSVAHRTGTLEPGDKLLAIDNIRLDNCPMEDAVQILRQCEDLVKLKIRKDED

Binder: QSYPSKHDYV [CLDN18, P56856]
pKd (NHERF3_1, Q5T2W1): 4.26
pKd (MPDZ_5, O75970): below the threshold
pKd (IL16_1, Q14005): below the threshold
pKd (SCRIB_2, Q14160): below the threshold
pKd (DLG4_1, P78352): 3.67
pKd (MAGI2_3, Q86UL8): 3.62
pKd (MAGI1_1, Q96QZ7): below the threshold
pKd (NHERF4_4, Q86UT5): 4.03
pKd (APBA1_1, Q02410): below the threshold
pKd (PDZD2_2, O15018): 4.86
pKd (GRIP2_5, Q9C0E4): below the threshold
pKd (NHERF4_2, Q86UT5): 3.59
pKd (PICK1, Q9NRD5): 4.26
pKd (ARHGAP21, Q5T5U3): 3.99
pKd (PARD3_3, Q8TEW0): 3.69
pKd (TX1BP3, O14907): 4.17
pKd (APBA1_2, Q02410): 4.45
pKd (NHERF2_2, Q15599): below the threshold
pKd (GRID2IP_2, A4D2P6): below the threshold
pKd (DLG3_3, Q92796): below the threshold
pKd (LDB3, O75112): below the threshold
pKd (GRIP2_3, Q9C0E4): below the threshold
pKd (MAST2, Q6P0Q8): 3.87
pKd (MPP7, Q5T2T1): below the threshold
pKd (NOS1, P29475): 4.29
pKd (MPDZ_10, O75970): 3.64
pKd (Inadl_4, Q8NI35): below the threshold

Binder: LAHVKHKEQI [AQP3, Q92482]
pKd (NHERF3_1, Q5T2W1): below the threshold
pKd (MPDZ_5, O75970): below the threshold
pKd (IL16_1, Q14005): below the threshold
pKd (SCRIB_2, Q14160): below the threshold
pKd (DLG4_1, P78352): below the threshold
pKd (MAGI2_3, Q86UL8): below the threshold
pKd (MAGI1_1, Q96QZ7): below the threshold
pKd (NHERF4_4, Q86UT5): below the threshold
pKd (APBA1_1, Q02410): below the threshold
pKd (PDZD2_2, O15018): below the threshold
pKd (GRIP2_5, Q9C0E4): below the threshold
pKd (NHERF4_2, Q86UT5): below the threshold
pKd (PICK1, Q9NRD5): 3.98
pKd (ARHGAP21, Q5T5U3): 3.98
pKd (PARD3_3, Q8TEW0): below the threshold
pKd (TX1BP3, O14907): below the threshold
pKd (APBA1_2, Q02410): below the threshold
pKd (NHERF2_2, Q15599): below the threshold
pKd (GRID2IP_2, A4D2P6): below the threshold
pKd (DLG3_3, Q92796): below the threshold
pKd (LDB3, O75112): below the threshold
pKd (GRIP2_3, Q9C0E4): below the threshold
pKd (MAST2, Q6P0Q8): below the threshold
pKd (MPP7, Q5T2T1): below the threshold
pKd (NOS1, P29475): below the threshold
pKd (MPDZ_10, O75970): below the threshold
pKd (Inadl_4, Q8NI35): below the threshold

Binder: RFQQRMQTHV [KIRREL1, Q96J84]
pKd (NHERF3_1, Q5T2W1): 5.03
pKd (MPDZ_5, O75970): below the threshold
pKd (IL16_1, Q14005): below the threshold
pKd (SCRIB_2, Q14160): 4.1
pKd (DLG4_1, P78352): 4.32
pKd (MAGI2_3, Q86UL8): 3.75
pKd (MAGI1_1, Q96QZ7): below the threshold
pKd (NHERF4_4, Q86UT5): below the threshold
pKd (APBA1_1, Q02410): below the threshold
pKd (PDZD2_2, O15018): 4.4
pKd (GRIP2_5, Q9C0E4): below the threshold
pKd (NHERF4_2, Q86UT5): below the threshold
pKd (PICK1, Q9NRD5): below the threshold
pKd (ARHGAP21, Q5T5U3): below the threshold
pKd (PARD3_3, Q8TEW0): below the threshold
pKd (TX1BP3, O14907): 4.85
pKd (APBA1_2, Q02410): 3.92
pKd (NHERF2_2, Q15599): 3.57
pKd (GRID2IP_2, A4D2P6): 3.96
pKd (DLG3_3, Q92796): 3.94
pKd (LDB3, O75112): below the threshold
pKd (GRIP2_3, Q9C0E4): below the threshold
pKd (MAST2, Q6P0Q8): 5.73
pKd (MPP7, Q5T2T1): below the threshold
pKd (NOS1, P29475): below the threshold
pKd (MPDZ_10, O75970): below the threshold
pKd (Inadl_4, Q8NI35): below the threshold

Other lines, results leading:

pKd (NHERF3_1, Q5T2W1): 5.08
pKd (MPDZ_5, O75970): below the threshold
pKd (IL16_1, Q14005): 4.06
pKd (SCRIB_2, Q14160): 3.62
pKd (DLG4_1, P78352): 4.24
pKd (MAGI2_3, Q86UL8): below the threshold
pKd (MAGI1_1, Q96QZ7): below the threshold
pKd (NHERF4_4, Q86UT5): below the threshold
pKd (APBA1_1, Q02410): below the threshold
pKd (PDZD2_2, O15018): 5.54
pKd (GRIP2_5, Q9C0E4): below the threshold
pKd (NHERF4_2, Q86UT5): below the threshold
pKd (PICK1, Q9NRD5): below the threshold
pKd (ARHGAP21, Q5T5U3): 4.04
pKd (PARD3_3, Q8TEW0): 3.56
pKd (TX1BP3, O14907): 4.84
pKd (APBA1_2, Q02410): 4.15
pKd (NHERF2_2, Q15599): 3.98
pKd (GRID2IP_2, A4D2P6): 4.61
pKd (DLG3_3, Q92796): below the threshold
pKd (LDB3, O75112): below the threshold
pKd (GRIP2_3, Q9C0E4): below the threshold
pKd (MAST2, Q6P0Q8): 4.73
pKd (MPP7, Q5T2T1): below the threshold
pKd (NOS1, P29475): 3.53
pKd (MPDZ_10, O75970): below the threshold
pKd (Inadl_4, Q8NI35): below the threshold
Binder: APIAGFSSFV [SDK2, Q58EX2]

pKd (NHERF3_1, Q5T2W1): 4.57
pKd (MPDZ_5, O75970): below the threshold
pKd (IL16_1, Q14005): 3.59
pKd (SCRIB_2, Q14160): 4.32
pKd (DLG4_1, P78352): 4.71
pKd (MAGI2_3, Q86UL8): below the threshold
pKd (MAGI1_1, Q96QZ7): below the threshold
pKd (NHERF4_4, Q86UT5): below the threshold
pKd (APBA1_1, Q02410): below the threshold
pKd (PDZD2_2, O15018): 5.32
pKd (GRIP2_5, Q9C0E4): below the threshold
pKd (NHERF4_2, Q86UT5): below the threshold
pKd (PICK1, Q9NRD5): below the threshold
pKd (ARHGAP21, Q5T5U3): 4.21
pKd (PARD3_3, Q8TEW0): 3.61
pKd (TX1BP3, O14907): 3.49
pKd (APBA1_2, Q02410): 3.9
pKd (NHERF2_2, Q15599): 3.65
pKd (GRID2IP_2, A4D2P6): 4.15
pKd (DLG3_3, Q92796): 3.6
pKd (LDB3, O75112): below the threshold
pKd (GRIP2_3, Q9C0E4): below the threshold
pKd (MAST2, Q6P0Q8): 5.3
pKd (MPP7, Q5T2T1): below the threshold
pKd (NOS1, P29475): below the threshold
pKd (MPDZ_10, O75970): 3.7
pKd (Inadl_4, Q8NI35): below the threshold
Binder: REEPDHSTEV [CCRL2, O00421]
